Laboratory results taken from patent US20240316143A1, “THERAPEUTIC AGENTS AND/OR PHARMACEUTICAL COMPOSITIONS FOR NEUROCOGNITIVE DISORDERS” (priority 2023, published 2024).
Square brackets hold non-standard residues; d marks the D form. Ends that are not written are not given here. pGlu = O=C1CC[C@@H](C(=O)O)N1

Legend:
[1] = molecular target: V1aR receptor (V1aR) (Homo sapiens, UniProt P37288); experiment: V1aR agonist activity of AVP fragments compared with AVP; details: no method or data given
[2] = tested on: aged rats and AD model rats
Procedure: The arginine vasopressin (AVP) concentration and AQP4 concentration in the brain are assayed with aged rats and AD model rats. Between placebo groups and intranasal AVP spray groups, the expression amount of AQP4 is assessed and simultaneously amyloid 3 (AB) proteins (and/or tau proteins) are assayed. The assays of AQP4 and AB are carried out with an immunofluorescent-antibody assay. The measured concentration of each of AB (and/or tau) is compared (throughout all the brain and each site) at each time point, i.e., prior to administration, at one week after administration, at one month after administration, and at three months after administration.
In this assay, the comparisons are carried out between the above groups and intravascularly AVP received groups.

Chain of V1aR receptor (V1aR) (P37288 whole entry, species assumed, the tested form may be a part): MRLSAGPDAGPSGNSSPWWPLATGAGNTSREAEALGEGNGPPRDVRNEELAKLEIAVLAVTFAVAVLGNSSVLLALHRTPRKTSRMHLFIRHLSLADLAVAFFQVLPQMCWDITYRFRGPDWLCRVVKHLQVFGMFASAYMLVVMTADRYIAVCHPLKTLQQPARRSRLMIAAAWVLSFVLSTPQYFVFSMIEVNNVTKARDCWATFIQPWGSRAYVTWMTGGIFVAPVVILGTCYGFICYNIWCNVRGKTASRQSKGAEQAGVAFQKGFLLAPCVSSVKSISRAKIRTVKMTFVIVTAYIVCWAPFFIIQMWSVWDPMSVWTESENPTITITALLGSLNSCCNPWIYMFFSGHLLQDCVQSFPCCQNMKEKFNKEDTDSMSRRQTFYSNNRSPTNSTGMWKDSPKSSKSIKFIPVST

Substance	V1aR agonist activity relative to original AVP [1]	further results
AVP (4-8): AVP fragment (QNCPR; Arg-vasopressin; UniProt P01185 23-27, looked up, fragment)	several-fold superior to original AVP	
AVP (5-8): AVP fragment (NCPR; Arg-vasopressin; UniProt P01185 24-27, looked up, fragment)	several-fold superior to original AVP	
8-arginine-vasopressin [AVP]		correlation between the concentration of AVP in the brain and the expression amount of AQP4 ([2]; aged rats and AD model rats, intranasal AVP spray vs placebo, immunofluorescent-antibody assay): There is a correlation; correlation of brain AVP concentration and AQP4 expression with the amount of AB reduction ([2]; aged rats and AD model rats, prior to, one week, one month and three months after administration): correlate with the amount of AB reduction; effectiveness of intranasal AVP administration ([2]; compared with placebo groups and intravascularly AVP received groups): effective
AVP (5-9): AVP fragment (NCPRG; ends and bridges not checked; UniProt P01185 24-28, looked up, fragment)	several-fold superior to original AVP	

Second part, led by results:

V1aR agonist activity relative to original AVP [1]	Substance	further results
several-fold superior to original AVP	pGlu-Asn-Ser-Pro-Arg-Gly-NH2 acetate ([pGlu]NSPRG-NH2; also: acetate salt) [NC1900, AVP fragment]	
several-fold superior to original AVP	AVP (4-9): AVP fragment (QNCPRG; ends and bridges not checked; UniProt P01185 23-28, looked up, fragment)	
